In patent publication US20150266963A1:
Values belong to the binder of their own block, whether it stands above or below them.

Columns and labels:
[1] = target: T1, recombinant human CD70 (Flag-TNC-CD70) (human) (UniProt P32970); test: inhibition ELISA; Flag-TNC-CD70 captured by anti-Flag mAb; competitor CD27-Fc
T1 sequence (looked up): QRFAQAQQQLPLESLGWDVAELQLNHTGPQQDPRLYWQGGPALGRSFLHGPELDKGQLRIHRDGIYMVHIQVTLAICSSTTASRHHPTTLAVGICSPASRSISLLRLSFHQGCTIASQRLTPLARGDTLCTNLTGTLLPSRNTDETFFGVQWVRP

[2] = target: T1, recombinant human CD70 (Flag-TNC-CD70) (human); test: blocking ELISA; human Flag-TNC-CD70; competitor CD27-Fc
[3] = target: rhesus recombinant CD70 (FLAG-TNC-rhesus CD70) (rhesus); test: blocking ELISA; rhesus Flag-TNC-CD70; competitor CD27-Fc
[4] = target: T2, rhesus CD70 on LCL8664 cells (rhesus) (UniProt F7GPA5); test: flow cytometry on rhesus LCL8664 cells, goat anti human IgG1 FITC [panel Rhesus monkey]
T2 sequence: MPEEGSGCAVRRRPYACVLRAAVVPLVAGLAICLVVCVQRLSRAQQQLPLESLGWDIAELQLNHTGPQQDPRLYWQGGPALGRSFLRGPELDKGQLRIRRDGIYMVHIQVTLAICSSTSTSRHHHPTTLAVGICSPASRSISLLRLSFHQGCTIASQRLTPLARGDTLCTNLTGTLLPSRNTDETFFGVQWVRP

[5] = target: cynomolgus monkey Flag-TNC-CD70 (cynomolgus monkey); test: blocking ELISA; cynomolgus Flag-TNC-CD70; competitor CD27-Fc
[6] = target: T1, recombinant human CD70 (Flag-TNC-CD70) (human); test: blocking ELISA; Flag-TNC-CD70 captured by anti-FLAG M2; competitor CD27-Fc 6.5 nM
[7] = target: T3, human CD70 expressed on the surface of cells (human) (UniProt P32970); test: flow cytometry on U266 cells, 1 h at 4 °C, anti-hIgG1-Fc-FITC or anti-hIgG-Fc-PE [panel U266]
T3 sequence (looked up): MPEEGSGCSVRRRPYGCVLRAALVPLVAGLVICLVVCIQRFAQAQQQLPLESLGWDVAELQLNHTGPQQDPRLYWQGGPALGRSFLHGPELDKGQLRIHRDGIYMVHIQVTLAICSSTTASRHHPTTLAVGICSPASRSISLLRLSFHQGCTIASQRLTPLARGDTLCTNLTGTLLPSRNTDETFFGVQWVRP

[8] = target: T3, human CD70 expressed on the surface of cells (human); test: flow cytometry on U266 cells, goat anti human IgG1 FITC [panel U266]
[9] = target: T3, human CD70 expressed on the surface of cells (human); test: cell-based or functional assay
[10] = target: T1, recombinant human CD70 (Flag-TNC-CD70) (human); test: Biacore; recombinant human CD70 on CM5 chip; Fab from papain digestion
[11] = target: T1, recombinant human CD70 (Flag-TNC-CD70) (human); test: Biacore; recombinant human CD70 on CM5 chip; Fab injected

IC50 [1]: 0.33 µg/mL
IC50 [2]: 0.054 µg/mL
IC50 [3]: 0.178 µg/mL
EC50 (read off the curve) [4]: 0.1 µg/mL
IC50 [5]: 0.112 µg/mL
IC50 [6]: 4.97 µg/mL
EC50 (read off the curve) [7]: 0.08 µg/mL
EC50 (read off the curve) [8]: 0.08 µg/mL
IC50 (ng/ml), IL-8 secretion in Raji / HT1080-CD27 co-culture assay [9]: 55 ng/mL
B1: SGN70 (antibody, INN chains, looked up, V domains shown)
VH: QVQLVQSGAEVKKPGASVKVSCKASGYTFTNYGMNWVRQAPGQGLKWMGWINTYTGEPTYADAFKGRVTMTRDTSISTAYMELSRLRSDDTAVYYCARDYGDYGMDYWGQGTTVTVSS
VL: DIVMTQSPDSLAVSLGERATINCRASKSVSTSGYSFMHWYQQKPGQPPKLLIYLASNLESGVPDRFSGSGSGTDFTLTISSLQAEDVAVYYCQHSREVPWTFGQGTKVEIK

koff [10]: 0.0007 s⁻¹
koff [11]: 0.0007 s⁻¹
B2: SGN70-Fab (Fab, INN chains, looked up, V domains shown)
VH: B1 VH
VL: B1 VL
modifications: Fab
